In paper doi:10.1101/2025.02.16.638571 (bioRxiv, 2025):

B1: mAb LN3D3 (antibody, V domains shown)
VH: EVKLEESGPELVKPGASVKMSCKASGYTFTNYVMHWVKQKPGQGLEWIGYVNPYNDGTQYNEKFRDKATLTSDKSSSTVYMELNSLTSEDSAVYYCTRGDYPYWVFEVWGAGTTVTVSS
VL: EIQMTQSPATLSVTPGDSVSLSCRASQSISNNLHWYQQKSHESPRLLIKYASQSISGIPSRFSGSGSGTDFTLSINNLETEDFGMYFCQHSDSWPFTFGSGTKLEIK
B2: mAb LN1F9 (antibody, V domains shown)
VH: EVKLVESGGGLVKPGGSLKLSCAASGFSFRNYAMSWVRQSPEKRLEWVAEVSSGGGYTYYPDTVTGRFTISRDNAKNILYLEMSSLRSEDTAMYYCTRDPDSSGYLAWFAYWGQGTLVTVSA
VL: DILLTQSPASLSASVGETVTITCRASENINSYLAWYQQKQGKSPQLLVYNAKTLAEGVPSRFSGSGSDTQFSLKINTLQPEDFGTYYCQHHSGTPYTFGGGTKLEIK
B3: mAb S2B10 (antibody, V domains shown)
VH: QMQLQESGPGLVKPSQSLSLTCTVTGYSITSDYAWNWIRQFPRNKLEWMGFITYSGSTSYNPSLKSRISLTRDTSKNQFFLQLSSVTTEDTATYYCARSGANWDWFAYWGQGTLVTVSA
VL: DIQMTQSPASLAVSLGQRATISCRASESVDNYGNSFMHWYQQKPGQPPKLLIYRASKLESGIPARFSGSGSRTDFTLTINPVEADDVATYHCQQSNEDPWTFGGGTKLEIK
B4: mAb S1E2 (antibody, V domains shown)
VH: QMQLQESGPGLVKPSQSLSLTCSVTGYSITSGYYWNWIRQFSGNKLEWMGYINHDGSKNYNPSLKNRISITRDTSKNQFFLKLNSVTTEDTATYYCARDYGSYYYPMDYWGQGTSVTVSS
VL: EIVLTQSPPIMSASPGEKVTITCSASSSVTFMHWFQQKPGTSPKLWIFSTSNLASGVPARFSGSGSGTSYSLTISRMEAEDAATYYCQQRSSYPFTFGSGTKLEIK

The binders below were run against full-length NiVM G on transfected cells (Nipah virus, Malaysia strain (NiVM), UniProt Q9IH62) (assay: flow cytometry on cells).
B1: binds. B2: binds. B3: binds. B4: binds.
